Experimental data reported in patent US20230340087A1.

Biological target: Clostridium difficile toxin A (TcdA) (Clostridium difficile) (UniProt P16154)
Assay: cell-based or functional assay

Clostridium difficile toxin A (TcdA) (Clostridium difficile), sequence (P16154 whole entry): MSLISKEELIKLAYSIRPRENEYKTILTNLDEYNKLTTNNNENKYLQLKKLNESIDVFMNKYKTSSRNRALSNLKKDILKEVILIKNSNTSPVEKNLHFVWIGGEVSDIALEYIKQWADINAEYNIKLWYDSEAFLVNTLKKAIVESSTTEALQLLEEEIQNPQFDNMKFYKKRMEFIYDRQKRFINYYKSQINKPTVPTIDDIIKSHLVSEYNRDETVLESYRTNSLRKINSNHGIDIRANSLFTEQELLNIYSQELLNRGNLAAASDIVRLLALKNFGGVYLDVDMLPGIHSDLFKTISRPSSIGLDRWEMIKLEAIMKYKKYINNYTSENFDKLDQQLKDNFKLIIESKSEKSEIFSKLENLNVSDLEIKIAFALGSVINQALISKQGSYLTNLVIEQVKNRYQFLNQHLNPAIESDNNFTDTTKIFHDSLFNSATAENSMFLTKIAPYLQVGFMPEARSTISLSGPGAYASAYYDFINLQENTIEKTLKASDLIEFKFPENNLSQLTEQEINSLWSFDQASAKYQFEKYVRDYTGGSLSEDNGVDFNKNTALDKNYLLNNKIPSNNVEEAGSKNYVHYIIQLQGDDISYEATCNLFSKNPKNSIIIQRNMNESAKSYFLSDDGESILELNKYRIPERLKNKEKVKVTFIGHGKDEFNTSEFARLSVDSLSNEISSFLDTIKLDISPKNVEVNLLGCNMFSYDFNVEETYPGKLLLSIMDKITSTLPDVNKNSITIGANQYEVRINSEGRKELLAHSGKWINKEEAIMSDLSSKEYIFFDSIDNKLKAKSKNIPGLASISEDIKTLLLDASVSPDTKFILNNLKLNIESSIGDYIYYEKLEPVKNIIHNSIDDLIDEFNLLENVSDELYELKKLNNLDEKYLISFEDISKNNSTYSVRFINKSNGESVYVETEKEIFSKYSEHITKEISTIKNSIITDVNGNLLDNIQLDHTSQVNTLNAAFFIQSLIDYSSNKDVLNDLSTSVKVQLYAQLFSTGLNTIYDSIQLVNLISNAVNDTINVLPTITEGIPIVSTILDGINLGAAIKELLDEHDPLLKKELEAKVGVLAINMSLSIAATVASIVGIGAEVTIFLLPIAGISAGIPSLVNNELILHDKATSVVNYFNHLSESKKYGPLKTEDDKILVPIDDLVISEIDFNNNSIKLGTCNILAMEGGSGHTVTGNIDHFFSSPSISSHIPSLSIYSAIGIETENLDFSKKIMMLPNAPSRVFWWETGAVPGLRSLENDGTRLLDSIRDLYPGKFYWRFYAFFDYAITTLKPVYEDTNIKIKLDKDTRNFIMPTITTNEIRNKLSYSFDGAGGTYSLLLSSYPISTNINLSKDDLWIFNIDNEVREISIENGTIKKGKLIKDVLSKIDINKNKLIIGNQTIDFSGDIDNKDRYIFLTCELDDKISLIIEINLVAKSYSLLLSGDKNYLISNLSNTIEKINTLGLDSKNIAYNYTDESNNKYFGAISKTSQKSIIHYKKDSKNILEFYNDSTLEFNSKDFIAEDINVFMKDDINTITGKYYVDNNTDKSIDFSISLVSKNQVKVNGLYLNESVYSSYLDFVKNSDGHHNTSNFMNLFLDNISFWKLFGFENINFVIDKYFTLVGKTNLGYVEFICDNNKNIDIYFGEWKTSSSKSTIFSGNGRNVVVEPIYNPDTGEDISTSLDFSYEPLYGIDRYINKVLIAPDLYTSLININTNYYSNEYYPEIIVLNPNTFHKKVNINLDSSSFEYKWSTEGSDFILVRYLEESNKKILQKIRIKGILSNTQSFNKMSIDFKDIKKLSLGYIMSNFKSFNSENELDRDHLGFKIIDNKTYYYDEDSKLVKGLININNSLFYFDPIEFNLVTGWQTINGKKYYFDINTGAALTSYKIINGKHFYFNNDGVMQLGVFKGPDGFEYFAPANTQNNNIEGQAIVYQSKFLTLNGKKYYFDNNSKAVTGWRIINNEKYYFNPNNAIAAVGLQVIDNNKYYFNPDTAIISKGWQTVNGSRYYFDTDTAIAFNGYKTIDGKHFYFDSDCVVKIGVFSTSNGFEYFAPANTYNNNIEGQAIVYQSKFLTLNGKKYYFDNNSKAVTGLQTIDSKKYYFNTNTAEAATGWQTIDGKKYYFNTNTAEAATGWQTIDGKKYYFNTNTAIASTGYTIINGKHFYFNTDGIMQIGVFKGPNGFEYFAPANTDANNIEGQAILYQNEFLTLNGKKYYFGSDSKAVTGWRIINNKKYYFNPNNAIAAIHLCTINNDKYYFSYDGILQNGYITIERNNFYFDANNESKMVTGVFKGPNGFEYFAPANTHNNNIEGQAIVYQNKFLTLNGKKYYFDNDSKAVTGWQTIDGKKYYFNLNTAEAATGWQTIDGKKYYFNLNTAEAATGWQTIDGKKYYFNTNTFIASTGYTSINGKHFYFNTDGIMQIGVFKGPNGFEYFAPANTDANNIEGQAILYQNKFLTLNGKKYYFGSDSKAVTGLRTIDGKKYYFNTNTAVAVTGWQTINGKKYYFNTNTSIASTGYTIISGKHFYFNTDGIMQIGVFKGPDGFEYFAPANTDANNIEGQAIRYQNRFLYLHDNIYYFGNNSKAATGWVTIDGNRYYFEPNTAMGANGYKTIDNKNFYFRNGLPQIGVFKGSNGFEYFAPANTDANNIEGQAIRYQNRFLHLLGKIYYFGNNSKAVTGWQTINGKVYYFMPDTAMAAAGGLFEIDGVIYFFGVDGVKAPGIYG

Merck anti-TcdA human monoclonal antibody (actoxumab)
minimal dose of antibody protecting Vero cells from TcdA-induced cell rounding: > 10 nM
